From US7449443B2, “Method for stabilization of proteins using non-natural amino acids” (California Institute of Technology, priority 2000, dated 2008)

Key:
Assay type in all cases: physicochemical
[1] = CD thermal unfolding of GCN4-p1 coiled-coil peptides
Experimental: Circular Dichroism (CD) Analysis. CD spectra were recorded on an Aviv 62DS spectropolarimeter (Lakewood, N.J.) in PBS buffer, pH 7.4. All peptide concentrations were determined by amino acid analysis of a stock solution (5 mg/ml). Experiments were performed in a rectangular cell with pathlength of 1 cm for low concentration samples and pathlength of 1 mm for high concentration samples. Spectra were scanned from 250 nm to 200 nm with data taken every 1 nm. The temperature of the solution was maintained by a thermostatically controlled cuvette holder (HP model 89101A). Temperature scans were performed from 0° C. to 100° C. in 1° C. steps. Three scans were performed on a single sample and averaged. Each data point was collected after 30 seconds of thermal equilibration at the desired temperature. Urea titration scans were performed manually starting with the 8 M concentrated sample followed by serial dilution to the desired urea concentration. At each concentration, the sample was allowed to equilibrate for 5 min before recording the CD signal.
The analysis of CD thermal melting data was performed according to a previously described procedure using a two-state model (Schneider, J. P.; Lear, J. D.; DeGrado, W. F. J. Am. Chem. Soc. 1997, 119, 5742-5743). Temperature-dependent ellipticity data for each protein at different concentrations were fitted globally using a non-linear least-squares fitting procedure supplied with the Origin 6.0 software. For wild-type A1, the concentrations used for curve fitting were 10 and 100 μM, while 2 and 100 μm were used to fit data for the 92% fluorinated A1. The thermodynamic quantities Tm, ΔHm, ΔCp and Kd were parameters of the fitting procedure and are reported in the 1 M standard state. The free energy of folding at any temperature is given by equation 1. ΔG°=ΔHm(1−T/Tm)−ΔCp((Tm−T)+T1n(T/Tm) (1)
The thermal stabilities of the coiled-coil dimers of Leu-GCN4-p1 and Tfl-GCN4-p1 were examined by CD spectroscopy (FIG. 2B). A significant increase in the thermal stability of Tfl-GCN4-p1 as compared to Leu-GCN4-p1 is reflected in an elevation of the thermal denaturation temperature from 48° C. to 61° C. The 13° C. increase in Tm is remarkable in view of the fact that no increase in the thermal stability of GCN4-p1 has been reported based solely on substitution of the leucine residues at the d-positions. […] As expected for a monomer-dimer equilibrium, the denaturation curves depend on the peptide concentrations, and their midpoints shift to higher temperature as the concentrations of peptides are increased (FIG. 2C). The thermodynamic changes associated with the transition (folded dimer to unfolded monomers) is calculated from the melting curves by fitting the data to a monomer-dimer equilibrium (J. P. Schneider, J. D. Lear and W. F. DeGrado, J. Am. Chem. Soc. 119, 5742, 1997). Global analysis of the thermal unfolding curves at two different concentrations, approximately 85 μM and 3 μM, gave a calculated ΔH° of 60.2 kcal mol^−1, Tm of 385.4 K and ΔCp of 530 cal mol^−1 K^−1 for Tfl-GCN4-p1 (1 M standard state); the corresponding values for Leu-GCN4-p1 are 70.3 kcal mol^−1, 365.6 K and 740 cal mol^−1 K^−1 respectively.

[2] = Guanidine hydrochloride (GuHCl) titration monitored by CD at 222 nm; conditions: at each temperature examined; 30 μM peptide
Experimental: The difference in the ability to these molecules to resist denaturation is examined at 30° C. (open symbols) and 50° C. (closed symbols). The ellipticity is monitored at 222 nm and with a peptide concentration of 30 μM. Insert: GuHCl titration midpoint concentration, as defined by the concentration of GuHCl that is needed to denature 50% of the peptides, are plotted as a function of temperature, as described in Examples 5.

[3] = Sedimentation equilibrium ultracentrifugation (aggregation state); conditions: concentration range approximately 10 μM-40 μM
Experimental: Ultracentrifugation. Sedimentation equilibrium analysis of the wild type proteins GCN4-p1 and A1 and the corresponding artificial proteins containing the non-natural amino acids was performed using a Beckman XLI analytical ultracentrifuge, recording interference data and radial absorbance at 236 and 280 nm at the same time. […] The samples were centrifuged at 35000, 40000, 45000 rpm, until equilibrium was reached. Partial specific volumes were calculated by the residue-weighted average method of Cohn and Edsall (Harding, S. E.; Rowe, A. J.; Harton, J. C. Analytic Ultracentrifugation in Biochemistry and Polymer Science; The Royal Society for Chemistry: Cambridge, 1992). Solution densities were estimated using solute concentration-dependent density tables in the CRC Handbook of Chemistry and Physics. The data were fit as single species to provide an estimate of the aggregation states. Curve fitting of analytical ultracentrifuge data was done using Igor Pro (Wavemetrics Inc., Oswego WS) with procedures adapted from Brooks et al. (Brooks, I. S.; Soneson, K. K.; Hensley, P. Biophys. J. 1993, 64, 244) by Dr. James D. Lear.
Secondary structures of wild type polypeptide Leu-GCN4-p1 and the corresponding artificial polypeptide Tfl-GCN4-p1 were analyzed by circular dichroism (CD). […]

[4] = global analysis of thermal unfolding curves, 1 M standard state

Substance: Tfl-GCN4-p1: fluorinated GCN4-p1 leucine zipper peptide with trifluoroleucine at the four d-positions
- increase in Tm compared to Leu-GCN4-p1 ([1]; CD spectroscopy): 13 °C
- thermal denaturation temperature (Tm) ([1]; CD spectroscopy, coiled-coil dimers): 61 °C
- ΔH° ([1]; global analysis of thermal unfolding curves at approximately 85 μM and 3 μM, 1 M standard state): 60.2 kcal/mol
- Tm [1, 4]: 112.2 °C
- ΔCp [1, 4]: 530 cal mol^−1 K^−1
- concentration of GuHCl needed to unfold 50% of the peptide, versus wild-type peptide [2]: higher
- fraction dimeric [3]: approximately 85%
